Laboratory results published in article PMC6614842 (Nucleic Acids Research, 2019).
Substitutions are numbered along the chain they refer to. Read-outs that look alike come from different tables or passages of the source. Each block holds one molecule with its values, some of them ahead of it.

Assays:
[1] = target: Mature full-length TFAM (human mitochondrial transcription factor A, residues 43-246) (human) (UniProt Q00059); assay: AUC
[2] = target: Mature full-length TFAM (human mitochondrial transcription factor A, residues 43-246) (human) (UniProt Q00059); assay: SEC-MALLS
[3] = target: Mature full-length TFAM (human mitochondrial transcription factor A, residues 43-246) (human) (UniProt Q00059); assay: ITC
[4] = target: Mature full-length TFAM (human mitochondrial transcription factor A, residues 43-246) (human) (UniProt Q00059); assay: SEC-MALLS; remark: listed apart in the source
[5] = target: Mature full-length TFAM (human mitochondrial transcription factor A, residues 43-246) (human) (UniProt Q00059); assay: AUC; remark: listed apart in the source
TFAM WT (mature) [6] = target: T1, TFAM WT (mature) (Homo sapiens, UniProt Q00059 43-246); assay: EMSA
T1 sequence: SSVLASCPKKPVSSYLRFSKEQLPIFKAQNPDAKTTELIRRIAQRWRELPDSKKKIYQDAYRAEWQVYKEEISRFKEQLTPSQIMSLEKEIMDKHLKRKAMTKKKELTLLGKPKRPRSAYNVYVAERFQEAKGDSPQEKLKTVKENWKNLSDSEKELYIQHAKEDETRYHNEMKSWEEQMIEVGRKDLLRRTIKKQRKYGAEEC

[7] = target: T2, TFAM-C49A, A488 at C-terminal Cys246 (Homo sapiens, UniProt Q00059 43-246, C49A); assay: FRET
T2 sequence: T1 sequence with C7A

TFAM WT (mature) [8] = target: T1, TFAM WT (mature); assay: X-ray crystallography
[9] = target: T2, TFAM-C49A, A488 at C-terminal Cys246; assay: FRET; remark: listed apart in the source
[10] = target: T2, TFAM-C49A, A488 at C-terminal Cys246; assay: FRET; remark: listed apart in the source
native gel or EMSA = target: the molecule itself; assay: native gel or EMSA
[11] = target: T2, TFAM-C49A, A488 at C-terminal Cys246; assay: FRET; remark: listed apart in the source

- stoichiometry N [1]: 2
- stoichiometry N [2]: 2
- stoichiometry N [3]: 2
- stoichiometry N [4]: 2
- stoichiometry N [5]: 2
Molecule: Mature full-length TFAM (human mitochondrial transcription factor A, residues 43-246) (from UniProt Q00059 43-246) (natural protein)

B1: Site-X 22 (dsDNA)
DNA 1: TAACAAAAAATTTCCACCAAAC
DNA 2: TTTGGTGGAAATTTTTTGTTAG
- Kd (TFAM WT (mature) [6]): 13.6 ± 2.89 nM

B2: Site-Y3* 28 (dsDNA)
DNA 1: TAGAGGCTGTGCAGACATTCAATTGTTA
DNA 2: TAACAATTGAATGTCTGCACAGCCTCTA
- binding result [7]: binds

B3: Site-YBr 22 (dsDNA)
DNA 1: TAACAATTGAATGTCTGCACAG
DNA 2: CTGTGCAGACATTCAATTGTTA
modifications: brominated at thymine positions (positions not given)
- binding result (TFAM WT (mature) [8]): binds

B4: Site-X3* 28 (dsDNA)
DNA 1: TATCATAACAAAAAATTTCCACCAAACA
DNA 2: TGTTTGGTGGAAATTTTTTGTTATGATA
- binding result [9]: binds

B5: Site-X5* 28 (dsDNA)
DNA 1: TATCATAACAAAAAATTTCCACCAAACA
DNA 2: TGTTTGGTGGAAATTTTTTGTTATGATA
- binding result [10]: binds

B6: TFAM C-terminal tail deletion mutant (TFAM-CTΔ26) (domain or fragment, human, UniProt Q00059 43-220, looked up)
chain: SSVLASCPKKPVSSYLRFSKEQLPIFKAQNPDAKTTELIRRIAQRWRELPDSKKKIYQDAYRAEWQVYKEEISRFKEQLTPSQIMSLEKEIMDKHLKRKAMTKKKELTLLGKPKRPRSAYNVYVAERFQEAKGDSPQEKLKTVKENWKNLSDSEKELYIQHAKEDETRYHNEMKSWEE
- binding result (native gel or EMSA): binds

B7: Site-Y5* 28 (dsDNA)
DNA 1: TAGAGGCTGTGCAGACATTCAATTGTTA
DNA 2: TAACAATTGAATGTCTGCACAGCCTCTA
- binding result [11]: binds
